Percent of cells stained and luciferase activity of ILT3 reporter cells data for two substances are collected here from patent publication US20190241655A1.

Experiment [1] addresses human PI16 (Peptidase inhibitor 16) expressed on the cell surface (human) (UniProt Q6UXB8). Description: flow cytometry, ILT3Fc on PI16-transfected 3A9 cells. A general note: In flow cytometry, cells or beads pass a laser one at a time.
Experiment [2] shares this target. Description: flow cytometry, ILT3Fc cross-linked with anti-human Fc antibody on PI16-transfected 3A9 cells.
Experiment [3] has as its target ILT3-CD3z fusion protein on reporter cells (human). Description: cell-based or functional assay.

ILT3-CD3z fusion protein on reporter cells (human), sequence (Q8NHJ6 22-259): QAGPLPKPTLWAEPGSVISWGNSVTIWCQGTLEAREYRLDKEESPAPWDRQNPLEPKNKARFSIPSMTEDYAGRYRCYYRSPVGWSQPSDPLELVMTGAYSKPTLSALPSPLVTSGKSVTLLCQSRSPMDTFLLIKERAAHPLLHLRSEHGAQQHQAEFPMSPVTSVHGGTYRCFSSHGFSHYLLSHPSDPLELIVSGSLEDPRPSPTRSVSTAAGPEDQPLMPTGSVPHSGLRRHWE

ILT3Fc (Fc fusion): the percent of cells stained in experiment [1] came out at 8.3%; in experiment [2] it was 23%.
“human PI16 (Peptidase inhibitor 16) expressed on the cell surface (from UniProt Q6UXB8 28-463) (ligand)” displayed a luciferase activity of ILT3 reporter cells in experiment [3] of 2 log.
